Among the data in publication PMC4207781 are reduction of TNFα release by gmMφ co-cultured 1:5 with cytokine activated T cells (Tck) for 20 h, with ICs (50 µg/ml) values, retold here.

This assay deals with Fc gamma receptor IIb (FcγRIIb) on GM-CSF macrophages (human (endogenous in monocyte-derived macrophages)) (UniProt P31994).
Sequence of UniProt P31994 (P31994 43-217): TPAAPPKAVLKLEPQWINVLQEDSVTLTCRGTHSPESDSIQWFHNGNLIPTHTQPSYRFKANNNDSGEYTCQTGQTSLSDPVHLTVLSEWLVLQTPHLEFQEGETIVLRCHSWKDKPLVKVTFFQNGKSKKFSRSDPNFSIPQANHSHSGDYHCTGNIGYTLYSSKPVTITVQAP

Turning to “heat-aggregated immune complexes (IC) of human IgG”, the reduction of TNFα release by gmMφ co-cultured 1:5 with cytokine activated T cells (Tck) for 20 h, with ICs (50 µg/ml) turned out to be 50%.
